This assay deals with full-length human Tau (Tau441; 2N4R), recombinant (UniProt P10636 1-758). The assay is described as follows: SPR (Biacore); 25°C. In general terms: SPR reads the build-up and loss of mass on a sensor chip optically.
Sequence of full-length human Tau (Tau441; 2N4R), recombinant (P10636 other isoform, or with tags, fused parts or gaps): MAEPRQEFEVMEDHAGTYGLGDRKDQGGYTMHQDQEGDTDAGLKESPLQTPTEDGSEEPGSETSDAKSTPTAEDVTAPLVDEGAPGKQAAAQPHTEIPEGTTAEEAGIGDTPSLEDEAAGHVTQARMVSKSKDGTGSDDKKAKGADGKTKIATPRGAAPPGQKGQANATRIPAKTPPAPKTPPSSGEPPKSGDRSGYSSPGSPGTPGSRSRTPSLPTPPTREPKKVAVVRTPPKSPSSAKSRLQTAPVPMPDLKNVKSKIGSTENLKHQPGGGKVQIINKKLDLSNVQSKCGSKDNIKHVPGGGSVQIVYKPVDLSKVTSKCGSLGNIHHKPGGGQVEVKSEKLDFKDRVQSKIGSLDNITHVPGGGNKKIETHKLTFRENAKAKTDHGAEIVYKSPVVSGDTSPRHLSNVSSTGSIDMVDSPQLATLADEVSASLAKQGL

B1: chimeric IgG clone 1G7 (antibody, V domains shown)
VH: EVQLQQSGAEVVRPGASVKLSCTTSGFNIKDSLMHWLKQRPEQGLEWIGWIDPEDGETKYAPKFQDKATITADTSSNTAYLQLSSLTSGDTAIYYCARRDWEGPWGQGTLVTVSA
VL: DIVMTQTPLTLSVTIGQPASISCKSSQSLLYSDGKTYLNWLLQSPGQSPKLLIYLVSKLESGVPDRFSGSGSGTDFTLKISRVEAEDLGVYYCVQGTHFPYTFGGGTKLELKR
Consider B1, for which the Kd came out at 94.6 pM.

B2: chimeric IgG clone 1A5 (antibody, V domains shown)
VH: EVQLQQSGAELVRPGASVKLSCTASGFNIKDSLIHWVKQRPEQGLEWIGWIDPEDGETKYAPKFQDKATKTADTSSNTAYLQLSSLTSEDTAIYYCASGEWDYWGQGTSVTVSS
VL: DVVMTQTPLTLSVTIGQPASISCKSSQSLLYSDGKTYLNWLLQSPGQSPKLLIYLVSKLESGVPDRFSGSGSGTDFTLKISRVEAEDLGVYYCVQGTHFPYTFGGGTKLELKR
With B2, the Kd was found to be 155 pM.

The Kd is the equilibrium constant for the complex coming apart.
